For assay [1], the target named is murine CXCR4 on mouse ES cells and mouse embryo fibroblasts (mouse) (UniProt P70658). Kind of assay: cell-based or functional assay.
Assay [2] concerns the target murine CXCR6 on differentiated WT ES cells (mouse) (UniProt Q9EQ16). Put plainly: cell-based or functional assay.

Where only a bound is given, the exact number is not on record here.

Chain of murine CXCR6 on differentiated WT ES cells (mouse) (Q9EQ16 whole entry): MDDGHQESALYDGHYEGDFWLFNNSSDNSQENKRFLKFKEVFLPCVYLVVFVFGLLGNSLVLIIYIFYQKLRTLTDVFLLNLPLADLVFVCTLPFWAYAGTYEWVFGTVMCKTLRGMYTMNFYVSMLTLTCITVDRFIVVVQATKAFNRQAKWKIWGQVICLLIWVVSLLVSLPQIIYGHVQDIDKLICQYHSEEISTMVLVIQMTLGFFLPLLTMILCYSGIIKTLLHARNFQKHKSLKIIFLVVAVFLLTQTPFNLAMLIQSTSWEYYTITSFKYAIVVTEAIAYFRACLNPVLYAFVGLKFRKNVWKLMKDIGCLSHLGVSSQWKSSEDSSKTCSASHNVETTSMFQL
Chain of murine CXCR4 on mouse ES cells and mouse embryo fibroblasts (mouse) (P70658 whole entry): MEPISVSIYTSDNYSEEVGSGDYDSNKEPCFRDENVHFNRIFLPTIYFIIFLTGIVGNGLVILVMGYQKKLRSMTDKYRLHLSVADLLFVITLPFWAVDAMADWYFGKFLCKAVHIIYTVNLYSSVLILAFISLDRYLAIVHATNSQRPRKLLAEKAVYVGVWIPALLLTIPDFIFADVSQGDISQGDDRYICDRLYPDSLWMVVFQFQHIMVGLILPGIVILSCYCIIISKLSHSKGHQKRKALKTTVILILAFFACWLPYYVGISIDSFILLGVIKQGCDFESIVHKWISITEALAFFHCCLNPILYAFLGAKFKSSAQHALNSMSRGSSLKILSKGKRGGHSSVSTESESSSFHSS

As to chemokine CXCL12 (R&D systems) (ligand), in assay [1], the CXCL12 chemotaxis of differentiating WT-ES cells is over 2 fold.

As to chemokine CXCL16 (R&D) (ligand), the chemotaxis of differentiated WT ES cells towards CXCL16 in assay [2] came out at 2 fold.

Values taken from patent US20120282183A1.
